The source of these data is PMC11624264, “Phosphorylation of P-stalk proteins defines the ribosomal state for interaction with auxiliary protein factors” (EMBO Reports, 2024).

Where “and” joins values, the source holds several entries; their conditions need not be identical. Equal values may be shown once.

The target of test [1] is P-stalk of 80S ribosomes from the SDPM yeast mutant strain (S to A mutations within all P-stalk proteins at the C-termini) (S. cerevisiae) (UniProt P05317).
The target of test [2] is native (phosphorylated) yeast pentameric P-stalk complex ΔuL10(199-312)-(P1A–P2B)-(P1B–P2A) (S. cerevisiae) (UniProt P05317).
For test [3], the target named is P-stalk of 80S ribosomes from the SDPM yeast mutant strain (S to A mutations within all P-stalk proteins at the C-termini) (S. cerevisiae), P05317.
For test [4], the target named is native (phosphorylated) yeast pentameric P-stalk complex ΔuL10(199-312)-(P1A–P2B)-(P1B–P2A) (S. cerevisiae), P05317. Description: MST; P-stalk complex labelled with RED-tris-NTA on its His tag, 5 nM, titrated with unlabelled eIF5B (dilution series from 1.48 μM); PBS with 0.05% Tween-20 and 1 mg/ml BSA; 25 °C; Monolith NT.115 Pico.
A further test addresses T1, eIF5B (UniProt P39730 1-1002).
T1 construct: translation initiation factor eIF5B; also called trGTPase eIF5B; source: purified as previously described (Blanchet and Ranjan, 2022)
T1 sequence (looked up): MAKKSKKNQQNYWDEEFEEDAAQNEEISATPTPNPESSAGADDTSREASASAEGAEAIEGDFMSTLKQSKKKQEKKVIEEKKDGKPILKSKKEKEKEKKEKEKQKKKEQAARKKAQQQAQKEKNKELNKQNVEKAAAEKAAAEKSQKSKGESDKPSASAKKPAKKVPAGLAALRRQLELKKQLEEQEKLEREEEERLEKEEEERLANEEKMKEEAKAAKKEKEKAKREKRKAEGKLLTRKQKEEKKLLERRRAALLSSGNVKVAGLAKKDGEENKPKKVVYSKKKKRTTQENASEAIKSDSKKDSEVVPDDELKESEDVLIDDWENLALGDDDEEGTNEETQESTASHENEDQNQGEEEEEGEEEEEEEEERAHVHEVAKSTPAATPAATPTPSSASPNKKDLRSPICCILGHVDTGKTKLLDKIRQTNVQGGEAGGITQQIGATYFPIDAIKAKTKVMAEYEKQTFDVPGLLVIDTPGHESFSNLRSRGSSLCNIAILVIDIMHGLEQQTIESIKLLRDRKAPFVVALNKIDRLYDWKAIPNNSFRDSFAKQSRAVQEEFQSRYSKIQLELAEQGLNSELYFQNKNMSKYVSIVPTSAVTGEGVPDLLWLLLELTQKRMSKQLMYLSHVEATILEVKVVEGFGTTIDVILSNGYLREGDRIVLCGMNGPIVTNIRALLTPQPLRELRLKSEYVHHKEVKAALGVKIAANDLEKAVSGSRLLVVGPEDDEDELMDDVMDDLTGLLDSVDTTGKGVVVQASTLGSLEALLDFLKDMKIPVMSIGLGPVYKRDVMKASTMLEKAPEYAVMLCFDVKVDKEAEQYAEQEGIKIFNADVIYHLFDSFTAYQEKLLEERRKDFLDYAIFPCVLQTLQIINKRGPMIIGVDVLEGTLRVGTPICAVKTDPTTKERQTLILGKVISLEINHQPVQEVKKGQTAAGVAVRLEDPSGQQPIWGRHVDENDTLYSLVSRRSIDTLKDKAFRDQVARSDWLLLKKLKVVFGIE
The test is described as above. As to conditions: both partners purified.

In test [1], “eEF2 (from UniProt P32324 1-842) (enzyme)” returned a GTPase activity of eEF2 (0.05 µM, 10 µM GTP) with 0.2 µM 80S ribosomes from the SDPM strain (S to A, dephospho-mimicking P-stalk on the ribosome): average GTPase rate of 0.044 min⁻¹. Besides, in test [2], the GTPase activity of eEF2 (0.05 µM, 10 µM GTP) with 0.2 µM 80S ribosomes from the WT strain (phosphorylated P-stalk on the ribosome): average GTPase rate came out at 0.019 min⁻¹. “eEF1A (from UniProt P02994 1-458) (enzyme)” came in with a GTPase activity of eEF1A (0.05 µM, 10 µM GTP) with 0.2 µM 80S ribosomes from the SDPM strain (S to A, dephospho-mimicking P-stalk on the ribosome): average GTPase rate in test [1] of 0.019 min⁻¹. In test [2], this molecule displayed a GTPase activity of eEF1A (0.05 µM, 10 µM GTP) with 0.2 µM 80S ribosomes from the WT strain (phosphorylated P-stalk on the ribosome): average GTPase rate of 0.008 min⁻¹.

B1: eIF5B, P39730 1-1002 (enzyme)
chain: T1 sequence (looked up)
Broadly, the Kd is the concentration at which binding is half-saturated. Low values mean higher affinity, high ones lower affinity. With B1, in test [3], the GTPase activity of eIF5B (0.05 µM, 10 µM GTP) with 0.2 µM 80S ribosomes from the SDPM strain (S to A, dephospho-mimicking P-stalk on the ribosome): average GTPase rate was 0.02 min⁻¹. For the same molecule, the Kd in test [4] amounted to 11.2 µM.

B2: AP-treated (dephosphorylated) yeast pentameric P-stalk complex ΔuL10(199-312)-(P1A–P2B)-(P1B–P2A) (complex, S. cerevisiae)
chain 1: SSILDITDEELVSHFVSAVSTIASISLAIGYPTLPSVGHTLINNYKDLLAVAIAASYHYPEIEDLVDRIENPEKYAAAAPAATSAASGDAAPAEEAAAEEEEESDDDMGFGLFD
chain 2: MSTESALSYAALILADSEIEISSEKLLTLTNAANVPVENIWADIFAKALDGQNLKDLLVNFSAGAAAPAGVAGGVAGGEAGEAEAEKEEEEAKEESDDDMGFGLFD
chain 3: MKYLAAYLLLVQGGNAAPSAADIKAVVESVGAEVDEARINELLSSLEGKGSLEEIIAEGQKKFATVPTGGASSAAAGAAGAAAGGDAAEEEKEEEAKEESDDDMGFGLFD
chain 4: MSDSIISFAAFILADAGLEITSDNLLTITKAAGANVDNVWADVYAKALEGKDLKEILSGFHNAGPVAGAGAASGAAAAGGDAAAEEEKEEEAAEESDDDMGFGLFD
chain 5: MKYLAAYLLLNAAGNTPDATKIKAILESVGIEIEDEKVSSVLSALEGKSVDELITEGNEKLAAVPAAGPASAGGAAAASGDAAAEEEKEEEAAEESDDDMGFGLFD
notes: ribosomal P-stalk protein P1A, S. cerevisiae; ribosomal P-stalk protein P2B, S. cerevisiae; ribosomal P-stalk protein P1B, S. cerevisiae; ribosomal P-stalk protein P2A, S. cerevisiae; For MST the complex was labelled with RED-tris-NTA on the His tag; also called dephospho P-stalk; dephospho-P-stalk complex; copies: + + + +
On to B2, for which, in the test with eIF5B, the equilibrium dissociation constant (Kd) was 4.6 µM and 4.5 µM.
